Among the data in article doi:10.1101/641415 are stoichiometry N values, retold here.

Test [1] deals with SeMet-labelled SiiA-PD (S. Typhimurium). Kind of test: crystal structure.
The target in test [2] is SiiA-R162A (S. Typhimurium). The test is described as follows: SEC.
In test [3] the target is SiiA periplasmic domain (SiiA-PD) (S. Typhimurium). Kind of test: SEC.
Test [4] addresses periplasmic region of SiiA (ppr-SiiA, aa 40-210) (S. Typhimurium). The test is described as follows: SEC. For orientation: Size exclusion chromatography separates by hydrodynamic size, large species first.

Substance “SeMet-labelled SiiA-PD (domain or fragment)” showed a stoichiometry N in test [1] of 2.

SiiA-R162A (domain or fragment) had a stoichiometry N in test [2] of 2.

In test [3], “SiiA periplasmic domain (SiiA-PD) (domain or fragment)” had a stoichiometry N of 2.

Substance “periplasmic region of SiiA (ppr-SiiA, aa 40-210) (domain or fragment)” displayed a stoichiometry N in test [4] of 2.

In general, stoichiometry N refers to a count of units in the complex or per binding partner.
